Experimental data published in patent publication US20090130105A1 (Biogen, published 2009).

Columns and labels:
sIGF-1R(1-903) [1] = target: T1, sIGF-1R(1-903) (human, UniProt P08069 31-933); experiment: ITC, 25 °C; footnote a: affinity too high for accurate measurement
T1 construct: also called soluble IGF-1R ectodomain
Procedure: (§1) Isothermal Titration Calorimetry (ITC). […] The reagents were co-dialyzed against PBS, pH 7.2. The protein solutions were adjusted to the concentrations listed above by dilution using PBS dialysate. […] The protein solutions were prepared as described above for the MAb binding experiments. All ITC experiments were performed on an ITC₂₀₀ microcalorimeter (MicroCal, LLC) at 25° C. […] IGF-1R bispecific antibodies. A four minute equilibration period was used between all injections with an initial delay of 60 seconds. Numerical integration of the data was performed using the ITC data analysis software supplied by MicroCal (Origin). ΔHA° (T) values were calculated based on the difference between the average heat liberated/absorbed during the binding phase of the injections and the average heat of dilution found once the receptor, IGF-1R, was saturated with MAb or BsAb.

sIGF-1R(1-903) [2] = target: T1, sIGF-1R(1-903); experiment: ITC, 25 °C, antibody into sIGF-1R(1-903)
Procedure: as §1

[3] = target: T2, hIGF-1R-Fc mutant SD006 (A227K) (human, UniProt P08069 31-933); experiment: SPR: receptor-Fc captured on M13-C06 chip, then M13-C06 Fab; relative to wild type
T2 construct: not shown: human IgG1 Fc, C-terminal tag
T2 sequence (P08069 31-933 A257K): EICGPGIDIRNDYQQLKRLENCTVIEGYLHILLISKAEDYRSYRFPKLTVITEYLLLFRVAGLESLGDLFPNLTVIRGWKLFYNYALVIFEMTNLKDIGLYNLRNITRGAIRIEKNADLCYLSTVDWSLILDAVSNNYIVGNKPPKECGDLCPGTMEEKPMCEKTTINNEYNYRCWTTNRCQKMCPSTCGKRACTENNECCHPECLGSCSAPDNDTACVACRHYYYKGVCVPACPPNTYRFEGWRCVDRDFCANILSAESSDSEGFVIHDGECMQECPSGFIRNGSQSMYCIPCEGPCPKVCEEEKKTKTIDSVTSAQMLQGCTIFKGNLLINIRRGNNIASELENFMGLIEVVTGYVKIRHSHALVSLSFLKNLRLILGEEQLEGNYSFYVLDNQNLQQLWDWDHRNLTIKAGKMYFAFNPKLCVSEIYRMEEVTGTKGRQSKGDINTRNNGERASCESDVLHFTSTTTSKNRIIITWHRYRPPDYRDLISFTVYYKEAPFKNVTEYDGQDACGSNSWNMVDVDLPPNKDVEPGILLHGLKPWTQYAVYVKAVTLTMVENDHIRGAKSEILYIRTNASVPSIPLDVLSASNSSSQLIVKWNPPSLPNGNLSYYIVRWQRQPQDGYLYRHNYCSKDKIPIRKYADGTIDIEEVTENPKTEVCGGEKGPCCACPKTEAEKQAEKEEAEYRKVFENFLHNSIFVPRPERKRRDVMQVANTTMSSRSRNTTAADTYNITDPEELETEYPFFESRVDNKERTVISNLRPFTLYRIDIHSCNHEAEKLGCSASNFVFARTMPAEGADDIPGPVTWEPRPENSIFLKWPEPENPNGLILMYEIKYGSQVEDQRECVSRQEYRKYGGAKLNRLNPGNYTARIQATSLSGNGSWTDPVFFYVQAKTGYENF
Procedure: (§2) After, completion of the receptor-Fc loading step, flow rates were elevated to 5 μl/min. […] At the end of each sensorgram, the flow rate was elevated to 30 μl/min and the chip surface was regenerated by 2×10 μL injections of 0.1 M glycine, pH 2.

[4] = target: T3, hIGF-1R-Fc mutant SD016 (D531Q, V532N) (human, UniProt P08069 31-933); experiment: as above
T3 construct: not shown: human IgG1 Fc, C-terminal tag
T3 sequence (P08069 31-933 D561Q/V562N): as the sequence (P08069 31-933 A257K) above, with K227A, D531Q, V532N counted along it
Procedure: as §2

[5] = target: T4, hIGF-1R-Fc mutant SD008 (S257F) (human, UniProt P08069 31-933); experiment: as above
T4 construct: not shown: human IgG1 Fc, C-terminal tag
T4 sequence (P08069 31-933 S287F): as the sequence (P08069 31-933 A257K) above, with K227A, S257F counted along it
Procedure: as §2

[6] = target: T5, hIGF-1R-Fc mutant SD011 (G285S, S286T) (human, UniProt P08069 31-933); experiment: as above
T5 construct: not shown: human IgG1 Fc, C-terminal tag
T5 sequence (P08069 31-933 G315S/S316T): as the sequence (P08069 31-933 A257K) above, with K227A, G285S, S286T counted along it
Procedure: as §2

[7] = target: T6, hIGF-1R-Fc mutant SD003 (T188F) (human, UniProt P08069 31-933); experiment: as above
T6 construct: not shown: human IgG1 Fc, C-terminal tag
T6 sequence (P08069 31-933 T218F): as the sequence (P08069 31-933 A257K) above, with T188F, K227A counted along it
Procedure: as §2

[8] = target: T7, hIGF-1R-Fc mutant SD007 (N237G) (human, UniProt P08069 31-933); experiment: as above
T7 construct: not shown: human IgG1 Fc, C-terminal tag
T7 sequence (P08069 31-933 N267G): as the sequence (P08069 31-933 A257K) above, with K227A, N237G counted along it
Procedure: as §2

[9] = target: T8, hIGF-1R-Fc mutant SD004 (S210H, A211Q) (human, UniProt P08069 31-933); experiment: as above
T8 construct: not shown: human IgG1 Fc, C-terminal tag
T8 sequence (P08069 31-933 S240H/A241Q): as the sequence (P08069 31-933 A257K) above, with S210H, A211Q, K227A counted along it
Procedure: as §2

[10] = target: T9, hIGF-1R-Fc mutant SD005 (A217T) (human, UniProt P08069 31-933); experiment: as above
T9 construct: not shown: human IgG1 Fc, C-terminal tag
T9 sequence (P08069 31-933 A247T): as the sequence (P08069 31-933 A257K) above, with A217T, K227A counted along it
Procedure: as §2

[11] = target: T10, hIGF-1R-Fc mutant SD012 (E303G) (human, UniProt P08069 31-933); experiment: as above
T10 construct: not shown: human IgG1 Fc, C-terminal tag
T10 sequence (P08069 31-933 E333G): as the sequence (P08069 31-933 A257K) above, with K227A, E303G counted along it
Procedure: as §2

[12] = target: T11, hIGF-1R-Fc mutant SD019 (E739W, L741F) (human, UniProt P08069 31-933); experiment: as above
T11 construct: not shown: human IgG1 Fc, C-terminal tag
T11 sequence (P08069 31-933 E769W/L771F): as the sequence (P08069 31-933 A257K) above, with K227A, E739W, L741F counted along it
Procedure: as §2

[13] = target: T12, hIGF-1R-Fc mutant SD017 (I650S) (human, UniProt P08069 31-933); experiment: as above
T12 construct: not shown: human IgG1 Fc, C-terminal tag
T12 sequence (P08069 31-933 I680S): as the sequence (P08069 31-933 A257K) above, with K227A, I650S counted along it
Procedure: as §2

human IGF-1R(1-903)-Fc = target: T13, human IGF-1R(1-903)-Fc (human, UniProt P08069 31-933); experiment: as above
T13 construct: also called hIGF-1R-Fc; SDWT; not shown: human IgG1 Fc, C-terminal tag
T13 sequence (P08069 31-933): as the sequence (P08069 31-933 A257K) above, with K227A counted along it
Procedure: as §2

[14] = target: T14, hIGF-1R-Fc mutant SD001 (Y28A) (human, UniProt P08069 31-933); experiment: as above
T14 construct: not shown: human IgG1 Fc, C-terminal tag
T14 sequence (P08069 31-933 Y58A): as the sequence (P08069 31-933 A257K) above, with Y28A, K227A counted along it
Procedure: as §2

[15] = target: T15, hIGF-1R-Fc mutant SD002 (M156A) (human, UniProt P08069 31-933); experiment: as above
T15 construct: not shown: human IgG1 Fc, C-terminal tag
T15 sequence (P08069 31-933 M186A): as the sequence (P08069 31-933 A257K) above, with M156A, K227A counted along it
Procedure: as §2

[16] = target: T16, hIGF-1R-Fc mutant SD013 (D405K) (human, UniProt P08069 31-933); experiment: as above
T16 construct: not shown: human IgG1 Fc, C-terminal tag
T16 sequence (P08069 31-933 D435K): as the sequence (P08069 31-933 A257K) above, with K227A, D405K counted along it
Procedure: as §2

[17] = target: T17, hIGF-1R-Fc mutant SD009 (E264K) (human, UniProt P08069 31-933); experiment: as above
T17 construct: not shown: human IgG1 Fc, C-terminal tag
T17 sequence (P08069 31-933 E294K): as the sequence (P08069 31-933 A257K) above, with K227A, E264K counted along it
Procedure: as §2

[18] = target: T18, hIGF-1R-Fc mutant SD018 (E665A) (human, UniProt P08069 31-933); experiment: as above
T18 construct: not shown: human IgG1 Fc, C-terminal tag
T18 sequence (P08069 31-933 E695A): as the sequence (P08069 31-933 A257K) above, with K227A, E665A counted along it
Procedure: as §2

[19] = target: T19, hIGF-1R-Fc mutant SD010 (G271D) (human, UniProt P08069 31-933); experiment: as above
T19 construct: not shown: human IgG1 Fc, C-terminal tag
T19 sequence (P08069 31-933 G301D): as the sequence (P08069 31-933 A257K) above, with K227A, G271D counted along it
Procedure: as §2

T1 sequence (P08069 31-933): as the sequence (P08069 31-933 A257K) above, with K227A counted along it

B1: M13-C06 antibody (antibody, V domains shown)
VH: EVQLLESGGGLVQPGGSLRLSCAASGFTFSIYRMQWVRQAPGKGLEWVSGISPSGGTTWYADSVKGRFTISRDNSKNTLYLQMNSLRAEDTAVYYCARWSGGSGYAFDIWGQGTMVTVSS
VL: DIQMTQSPLSLSASVGDRVTITCQASRDIRNYLNWYQQKPGKAPKLLIYDASSLQTGVPSRFGGSGSGTDFSFTIGSLQPEDIATYYCQQFDSLPHTFGQGTKLEIK
notes: Fully human full-length antibody (ATCC PTA-7444); also called M13.C06.G4.P.agly; M13-C06.G4P.agly
-TΔS (sIGF-1R(1-903) [1]): 10.6 kcal/mol | Kd (sIGF-1R(1-903) [1]): ≤ 5 nM | ΔG (sIGF-1R(1-903) [1]): -11.3 kcal/mol | ΔH° (sIGF-1R(1-903) [2]): -21.9 kcal/mol

B2: M13-C06 Fab (Fab, V domains shown)
VH: EVQLLESGGGLVQPGGSLRLSCAASGFTFSIYRMQWVRQAPGKGLEWVSGISPSGGTTWYADSVKGRFTISRDNSKNTLYLQMNSLRAEDTAVYYCARWSGGSGYAFDIWGQGTMVTVSS
VL: DIQMTQSPLSLSASVGDRVTITCQASRDIRNYLNWYQQKPGKAPKLLIYDASSLQTGVPSRFGGSGSGTDFSFTIGSLQPEDIATYYCQQFDSLPHTFGQGTKLEIK
notes: Fab made by enzymatic digestion of the IgG
Biacore Relative RUmax [3]: 1.7 | Biacore Relative RUmax [4]: 2 | Biacore Relative RUmax [5]: 1.5 | Biacore Relative RUmax [6]: 1.8 | Biacore Relative RUmax [7]: 1 | Biacore Relative RUmax [8]: 1.3 | Biacore Relative RUmax [9]: 0.8 | Biacore Relative RUmax [10]: 0.9 | Biacore Relative RUmax [11]: 0.3 | Biacore Relative RUmax [12]: 1.9 | Biacore Relative RUmax [13]: 2 | Biacore Relative RUmax (human IGF-1R(1-903)-Fc): 1 | Biacore Relative RUmax [14]: 0.6 | Biacore Relative RUmax [15]: 1.2 | Biacore Relative RUmax [16]: 0.7 | Biacore Relative RUmax [17]: 0.6 | Biacore Relative RUmax [18]: 1.7 | Biacore Relative RUmax [19]: 0.8
